Experimental findings from patent US20210253725A1 (BIONTECH, published 2021) are described below.

Test [1] concerns the target T1, CD134 protein (His-tagged, Sino Biological Inc. 10481-H08H) (human, UniProt P43489 29-216).
T1 construct: bought protein coated on ELISA plates; also called OX40; TNFRSF4; not shown: His tag
T1 sequence (looked up): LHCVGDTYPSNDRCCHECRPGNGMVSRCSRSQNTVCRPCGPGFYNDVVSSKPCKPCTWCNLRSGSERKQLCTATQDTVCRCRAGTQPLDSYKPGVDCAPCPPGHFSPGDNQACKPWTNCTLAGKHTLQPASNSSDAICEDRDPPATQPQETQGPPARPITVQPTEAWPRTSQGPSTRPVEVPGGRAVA
Nature of the test: ELISA, coated His-tagged CD134. (In general: ELISA stands for enzyme-linked immunosorbent assay.)

Test [2] has as its target T2, CD134 expressed on the cell surface of HT1080_OX40 cells (human, UniProt P43489 29-277).
T2 sequence (looked up): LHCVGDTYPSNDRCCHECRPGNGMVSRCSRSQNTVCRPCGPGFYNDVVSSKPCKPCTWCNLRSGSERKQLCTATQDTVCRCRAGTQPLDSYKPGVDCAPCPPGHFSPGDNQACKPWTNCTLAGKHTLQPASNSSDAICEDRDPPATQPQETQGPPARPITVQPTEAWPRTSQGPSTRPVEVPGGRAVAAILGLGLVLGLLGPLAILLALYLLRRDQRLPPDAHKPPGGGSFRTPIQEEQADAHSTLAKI
Nature of the test: cell-based or functional assay.

Test [3] has as its target T2, CD134 expressed on the cell surface of …. The test can be described thus: HT1080_OX40 cells, imaging.
The target of test [4] is T3, CD27 expressed on the cell surface of HT1080_CD27 cells (human, UniProt P26842 20-260).
T3 sequence (looked up): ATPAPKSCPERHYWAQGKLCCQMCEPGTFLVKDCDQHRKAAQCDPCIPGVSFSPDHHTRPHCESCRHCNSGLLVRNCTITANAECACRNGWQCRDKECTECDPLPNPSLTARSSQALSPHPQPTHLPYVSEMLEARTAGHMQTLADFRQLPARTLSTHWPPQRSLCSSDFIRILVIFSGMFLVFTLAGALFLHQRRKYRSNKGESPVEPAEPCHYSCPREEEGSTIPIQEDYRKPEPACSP
Nature of the test: cell-based or functional assay.

Test [5] has as its target T3, CD27 expressed on the cell surface of …. Nature of the test: HT1080_CD27 cells, imaging.
The target in test [6] is T4, CD27 protein (His-tagged, Sino Biological Inc. 10039-H08B1) (human, UniProt P26842 20-192).
T4 construct: bought protein coated on ELISA plates; also called TNFRSF7; not shown: His tag
T4 sequence (looked up): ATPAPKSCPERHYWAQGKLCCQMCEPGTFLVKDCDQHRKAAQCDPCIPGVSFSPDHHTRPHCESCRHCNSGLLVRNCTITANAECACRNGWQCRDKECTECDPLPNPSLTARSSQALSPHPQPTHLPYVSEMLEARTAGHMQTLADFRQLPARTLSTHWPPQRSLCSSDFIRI
Nature of the test: ELISA, coated His-tagged CD27.
Further: test concentration or dose not given here.

B1: P018.S.11.A.H04 (antibody, V domains shown)
VH: QEQLEESGGDLVKPGASLTLTCTASGLSFSGSYWICWVRQAPGKGLEWIGCITAGISGSTYYASWAKGRFTISKTSSTTVTLQMTSLTAADTATYFCARERTGGWGDFNLWGPGTLVTVSS
VL: DVVMTQTPASVEAAVGGTVTIKCQASQSITTYLSWYQQKPGQPPKLLIYLASTLESGVPSRFKGSRSGTEYTLTISDLESADAATYYCQCTDGGINHWFWAFGGGTEVVVK
notes: V regions on human Ig constant parts; also called AB134_47
B1: the “ELISA [abs. corr.]” value in test [1] stood at 2.65 abs. corr. Also, in test [2], the “Functional assay Cross-linked by F(ab′)2 fragment IL-8” value (from here on “Functional assay Cross-linked”) is 1.61 abs. corr and the “Functional assay IL-8” value was 0.61 abs. corr. The “Cellular binding assay [RFU]” value in test [3] worked out at 382 RFU.

B2: P018.S.12.A.A02 (antibody, V domains shown)
VH: QSLEESGGRLVTPGTPLTLTCTASGFSLSTYYMTWVRQAPGKGLEWIGDIYVRGGARYANWAKGRFTISRTSTTVDLRITSPTTEDTATYFCAREGLSLWGQGTLVTVSS
VL: AQVLTQTASPVSAAVGGTVTINCQSSQSVYKNNRLAWYQQKPGQPPKLLIYETSKLESGVSSRFKGSGSGTQFTLTISGVQSDDAATYYCLGGYDCGSADCNAFGGGTEVVVK
notes: V regions on human Ig constant parts; also called AB134_51
Regarding B2, the “ELISA [abs. corr.]” value in test [1] stood at 1.58 abs. corr. Besides, in test [2], the “Functional assay Cross-linked” value amounted to 1.57 abs. corr and the “Functional assay IL-8” value came to 0.145 abs. corr. In addition, the “Cellular binding assay [RFU]” value in test [3] stood at 502 RFU.

B3: P018.S.12.A.E02 (antibody, V domains shown)
VH: QSVEESGGRLVTPGTPLTLTCTASGFTLSSYYMGWVRQAPGKGLEWIGIIYPSGSAYYATWTKGRFTISRTSTTVDLKVTGPTTEDTATYFCARSTTSSLYYGYNLWGQGTLVTVSS
VL: DIVMTQTPASVEAAVGGTVTIKCQASASITNWLAWYQQKPGQPPKLLIYKASTLESGVPSRFKGSGSGTEFTLTISDLESADAASYYCQSNYGGGSDTSHTFGGGTGVVVK
notes: V regions on human Ig constant parts; also called AB134_73
For B3, in test [1], the “ELISA [abs. corr.]” value worked out at 2.59 abs. corr. In test [2], the “Functional assay Cross-linked” value turned out to be 1.63 abs. corr and the “Functional assay IL-8” value amounted to 0.355 abs. corr. Moreover, the “Cellular binding assay [RFU]” value in test [3] was 497 RFU.

B4: P018.S.12.A.A04 (antibody, V domains shown)
VH: QSVEESGGRLVTPGTPLTLTCTVSGIDLSSYAMSWVRQAPGKGLEYIGIISGSGNTYYASWAKGRFTISKTSTTVDLKISSPTTEDTATYFCCRGDPSYSIDGFDPWGPGTLVTVSS
VL: AAVLTQTPSPVSAAVGGTVTINCQSSQSVYNNNDLAWYQQKPGQPPKLLIYRASNLASGVPSRFSGSGSGTQFTLTISGVQSGDAATYYCLGAWDDDADTWAFGGGTEVVVE
notes: V regions on human Ig constant parts; also called AB134_53
Regarding B4, in test [1], the “ELISA [abs. corr.]” value was found to be 1.99 abs. corr. In test [2], the “Functional assay Cross-linked” value amounted to 1.4 abs. corr and the “Functional assay IL-8” value was -0.007 abs. corr. Further, in test [3], the “Cellular binding assay [RFU]” value amounted to 514 RFU.

B5: P018.S.11.A.E05 (antibody, V domains shown)
VH: QSLEESGGRLVTPGTPLTLNCTASGFSLSAYWMGWVRQAPGKGLEWIGIIYATGSTYYTTWAKGRFTISRTSTTVDLKMTSPTTEDTATYFCGRGDGYESLNLWGPGTLVTVSS
VL: AQVLTQTPSSVSAAVGGTVTINCQSSQSVYSNNLLSWYQQKPGQPPKRLIYGASTLDSGVSSRFKGSGSGTQFTLTISGMQSDDAATYYCLGYYSGGIYVFGGGTEVVVK
notes: V regions on human Ig constant parts; also called AB134_36
As to B5, the “ELISA [abs. corr.]” value in test [1] stood at 1.66 abs. corr. In addition, in test [2], the “Functional assay Cross-linked” value is 1.42 abs. corr and the “Functional assay IL-8” value was -0.265 abs. corr. In test [3], the “Cellular binding assay [RFU]” value amounted to 407 RFU.

B6: P018.S.09.A.F05 (antibody, V domains shown)
VH: QEQLEESGGDLVKPGASLTLTCTASGFSFSSNYCMCWVRQAPGKGLEWIACICAGASGATYYASWAKGRFTVSKTSSTTVTLQMTSLTGADTATYFCARYDNSGWGDFKLWGPGTLVTVSS
VL: DIVMTQTPASVSEPVGGTVTINCQASQNIGTYLAWYQQKPGQRPKLLIYAASYLASGVPSRFKGSGSGTEVALTISDLESADAATYYCQNTYYDSPVVGGAFGGGTEVVVK
notes: V regions on human Ig constant parts; also called AB27_157
Regarding B6, in test [4], the “Functional assay Cross-linked” value is 1.68 abs. corr and the “Functional assay IL-8” value amounted to 0.158 abs. corr. Further, the “Cellular binding assay [RFU]” value in test [5] is 400 RFU. Also, the “ELISA [abs. corr.]” value in test [6] amounted to 3.12 abs. corr.

B7: P018.S.01.A.E02 (antibody, V domains shown)
VH: QSVEESGGRLVTPGTPLTLTCTASGFSLSNYYMSWVRQAPGKGLEWIGIISTYGDTYYATWAKGRFTISKTSTTVDLKITSPTTEDTATYFCARGSSDTYYTYFNLWGPGTLVTVSS
VL: DIVMTQTPASVEAAVGGTVTIKCQASQKIYNNLAWYQQKPGQPPKLLIYSASTLASGVPSRFKGSGSGTEFTLTISDLESADAATYYCQSYGVSANTISYGLPFGGGTEVVVK
notes: V regions on human Ig constant parts; also called AB27_14
Take B7: in test [4], the “Functional assay Cross-linked” value amounted to 1.17 abs. corr and the “Functional assay IL-8” value was found to be 0.276 abs. corr. In test [5], the “Cellular binding assay [RFU]” value was determined as 360 RFU. Further, in test [6], the “ELISA [abs. corr.]” value was 3.13 abs. corr.

B8: P018.S.12.A.A05 (antibody, V domains shown)
VH: QSLEESGGRLVTPGTPLTLTCTASGFSLSNYYINWVRQAPGKGLEWIGIIDKSGSAYYASWARGRFTISKTSTTVGLKIPSPTTEDTATYFCARGYGGYADHGLGLWGQGTLVTVSS
VL: DVVMTQTPASVSEPVGGTVTIKCQASQSIAGWLAWYQQKPGQPPKLLIYQASKLASGVPSRFSGSGSGTEYTLTISDLESDDAATYYCQCTYGSASGSNGFGGGTEVVVK
notes: V regions on human Ig constant parts; also called AB134_54
As for B8, the “ELISA [abs. corr.]” value in test [1] is 2.86 abs. corr. For the same molecule, in test [2], the “Functional assay Cross-linked” value is 1.53 abs. corr and the “Functional assay IL-8” value is 0.267 abs. corr. Moreover, the “Cellular binding assay [RFU]” value in test [3] stood at 503 RFU.

B9: P018.S.12.A.H03 (antibody, V domains shown)
VH: QSLEESRGGLVQPEGSLTLTCKASGFSFSSGYYMCWVRQAPGKGLEWIGCIYSGSDSACYASWAKGRFTISKTSSTTVTLQMTSLTVADTATYFCVRDLGDYNALSYTINLWGPGTLVTVSS
VL: DVVMTQTPSSVSAAVGGTVTIKCQASQSISTNLAWYQEKAGQPPKLLIYRASTVASGVPSRFKGSGSGTQFTLTISDLESADATTYFCQCIDYDDYGGTFGGGTEVVVK
notes: V regions on human Ig constant parts; also called AB134_89
Take B9: the “ELISA [abs. corr.]” value in test [1] stood at 2.48 abs. corr. For the same molecule, in test [2], the “Functional assay Cross-linked” value turned out to be 1.27 abs. corr and the “Functional assay IL-8” value was -0.074 abs. corr. The “Cellular binding assay [RFU]” value in test [3] stood at 496 RFU.

B10: P018.S.04.A.E01 (antibody, V domains shown)
VH: QSVEESGGRLVTPGTPLTLTCTASGFSLSSSWMSWVRQAPGKGLEFIGFINTGGRAFYATWASGRFTISRTSTKVDLEITSPTSEDTATYFCVRGAAGYPEYDDGDLWGQGTLVTVSS
VL: AQVLTQTLSPVSAAVGGTVTINCQSSPSVYHNNWLSWFQKKPGQPPKLLIYEASKLASGVPPRFSGSGSGTQFTLTISGVQSDDAATYYCAGSFSDNIYTFGGGTAMVVK
notes: V regions on human Ig constant parts; also called AB134_10
As to B10, the “ELISA [abs. corr.]” value in test [1] is 2.88 abs. corr. In test [2], the “Functional assay Cross-linked” value came out at 1.41 abs. corr and the “Functional assay IL-8” value was 0.084 abs. corr. Moreover, the “Cellular binding assay [RFU]” value in test [3] turned out to be 22 RFU.

B11: P018.S.11.A.F02 (antibody, V domains shown)
VH: QSVEESGGRLVTPGTPLTLTCTASGFSLSNYNMGWVRQAPGEGLEWIGHISTDGSAYYASWAKGRFTISKTSTTVDLKITSPTTEDTGTYFCARLYYRHGYALNLWGQGTLVTVSS
VL: DIVMTQTPASVSEPVGGTVTIKCQASQSVGSYLAWYQQKSGQPPKLLIYSASTLASGVPSRFKGSGSGTEFTLTISDLVSADAATYYCHCTYGSNITANWGTFGGGTGVVVK
notes: V regions on human Ig constant parts; also called AB134_38
As to B11, the “ELISA [abs. corr.]” value in test [1] is 2.43 abs. corr. Also, in test [2], the “Functional assay Cross-linked” value came to 1.38 abs. corr and the “Functional assay IL-8” value is -0.011 abs. corr. For the same molecule, the “Cellular binding assay [RFU]” value in test [3] turned out to be 503 RFU.

B12: P018.S.13.A.G06 (antibody, V domains shown)
VH: QSLEESGGGLVKPGASLTLTCKASGFDLSSYYYMCWVRQAPGKGLEWIGCFYTDDSANTWYATWAKGRFTISKTSSTTVTLQMTSLTAADTATYFCARDASGWYWFNLWGPGTLVTVSS
VL: AQVLTQTPSPVSAAVGGTVTISCQSSQSLHDDNALAWYQQKPGQPPKLLIYLASYLASGVPSRFKGSGSGTQFTLTISEVQSDDAATYYCQGAYSGDNNSFGGGTEVVVK
notes: V regions on human Ig constant parts; also called AB134_92
Turning to B12, in test [1], the “ELISA [abs. corr.]” value is 0.002 abs. corr. Also, in test [2], the “Functional assay Cross-linked” value was 1.58 abs. corr and the “Functional assay IL-8” value is -0.114 abs. corr. In addition, the “Cellular binding assay [RFU]” value in test [3] turned out to be 0 RFU.
